In US20190309085A1:

Molecular target: CD16aV (human) (UniProt P08637)
Assay: BLI (Octet), His-captured hCD16aV, 1:1 model

Chain of CD16aV (human) (P08637 17-208 F176V limits assumed): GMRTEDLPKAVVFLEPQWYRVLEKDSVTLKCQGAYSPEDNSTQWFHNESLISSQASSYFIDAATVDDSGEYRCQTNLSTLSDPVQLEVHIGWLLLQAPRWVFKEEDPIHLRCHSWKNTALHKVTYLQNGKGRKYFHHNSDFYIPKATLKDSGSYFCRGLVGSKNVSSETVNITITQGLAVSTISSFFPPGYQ

Kd: 580 nM
Substance: Fc-WT (antibody)
